Experimental findings from the supplement of paper PMC9170038 are described below.

The test system of this series is MS2 coat protein. Nature of the series: apparent KD of MS2 coat protein; higher = weaker reporter binding. The conditions noted are these: Eterna round: R107. The protocol: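 RNA-MaP round R107: designed RNA switches with theophylline, tryptophan, arginine or FMN aptamers are transcribed on-chip within common flanks. They are titrated with SNAP-549-labelled MS2 coat protein in RNA-MaP buffer (100 mM Tris pH 7.5, 80 mM KCl, 4 mM MgCl2), without ligand or with the indicated ligand. Median apparent KD per design.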

Where [1] appears, read: input ligand: theophylline 20 uM.
The mark [2] stands for this setting: input ligand: theophylline 2 mM.
Where [3] appears, read: input ligand: tryptophan 2.4 mM.

In the case of “ACAUGAGUGGAUAAUAAAUAAGAAGGCGAAGGAGCGUGAAGAAUCACAGGUAGGUCGCGCAAAAUACAUGAGGAUCACCCAUGUU [JR_Nu_ExcArginiA_Sub031]”, the “apparent KD of MS2 coat protein” value was found to be 22.5 nM (input ligand: arginine 13.2 mM); 27.6 nM (input ligand: none); 35.3 nM under setting [1]; 29.8 nM under setting [2]; 25.9 nM under setting [3].
On to “ACAUGUUGGUGGUAUCUACGAAGGCGGAAACGAGGACCGGUACGGCCGCCACUCGGCGACAUGAGGAUCACCCAUGUGGUUAAGA [Exclusion - Tryptophan A (Freestyle 6)]”, for which the “apparent KD of MS2 coat protein” value is, setting by setting: (input ligand: arginine 13.2 mM) 21.5 nM; under setting [1], 118 nM; under setting [2], 131 nM.
For “ACAUUGCGCUCGGCCGCCACUGCCUUAUGAUUAUAAGGAUUAAUGAACAUGAGGAUCACCCAUGUCAGGACCGGGAGCGAACCAU [SSTryp B #6]”, the “apparent KD of MS2 coat protein” value (input ligand: arginine 13.2 mM) was determined as 11.4 nM, the “apparent KD of MS2 coat protein” value under setting [1] is 16 nM and the “apparent KD of MS2 coat protein” value under setting [2] came out at 14.1 nM.
Take “ACAUUUAACUGAAGGAGCGUGAUAUUUACAUGAGGAUCACCCAUGUCUAUCAUGAGAUAUUCACAGGUAGGUCGCAGACUAAUGA [JR_ExcArginiB_Sub005]”: the “apparent KD of MS2 coat protein” value worked out at 38.9 nM (input ligand: arginine 13.2 mM); 26.7 nM (input ligand: none); 40.9 nM under setting [1]; 46.9 nM under setting [2]; 29.4 nM under setting [3].
As for “ACCAUGUAAUCAGAUACCAGACAUCUUUUAAAUCAUAUUACAUGAGGAUCACCCAUGUUGGUCCCUUGGCAGCUGAAAUAUUUCA [JR_Nu_SSTheophyB_Sub025]”, the “apparent KD of MS2 coat protein” value reads like this: (input ligand: arginine 13.2 mM) 144 nM; under setting [1], 351 nM; under setting [3], 529 nM.
For the sequence “ACCGAAAGCUCACAUGAGGAUCACCCAUGUCGAGGACCGGUACGGCCGCCACUCGGCAAAUAUAAGGGUGGACGCGUCUCUGCGU [Soramasoso]”, the “apparent KD of MS2 coat protein” value by setting is: (input ligand: arginine 13.2 mM) 35.4 nM; under setting [1], 58.8 nM; under setting [2], 62.1 nM.
Turning to “ACCGAGGCAAUGGAUACCAGUGCGCCACAAUCGUGCUUCAACAUGAGGAUCACCCAUGUGCACCCUUGGCAGCCAACGGGCUCAU [theeternabot_exclusion_MS2_Theo_B_19]”, the “apparent KD of MS2 coat protein” value runs as follows: (input ligand: arginine 13.2 mM) 15 nM; under setting [1], 25.3 nM; under setting [3], 19.9 nM.
Regarding “ACCGCAUCCGUAUAGGAUGCGGCCCAUGAAGGAGCGUGGGAAACCACAGGUAGGUCGCAUGGAUUACAUGAGGAUCACCCAUGUG [Skyfall]”, the “apparent KD of MS2 coat protein” value is, setting by setting: (input ligand: arginine 13.2 mM) 104 nM; (input ligand: none) 400 nM; under setting [1], 378 nM; under setting [2], 706 nM; under setting [3], 408 nM.
Take “ACCUCACUCUCUGAUACCAGCUAAUAACAUGAGGAUCACCCAUGUCAGACUUGUAUUGAUAGCCCUUGGCAGCAGAGGUAACUGC [Theo B Ex t2]”: the “apparent KD of MS2 coat protein” value reads like this: (input ligand: arginine 13.2 mM) 9.42 nM; under setting [1], 11.9 nM; under setting [3], 10.6 nM.
As to “ACCUCAUGUAGAAGGAGCGUCAGAAGCUACAGACAUGAGGAUCACCCAUGUUAGUUGAUCUGACAGGUAGGUCGCUACAGCAGGA [#23 Same State - Arginine B]”, the “apparent KD of MS2 coat protein” value by setting is: (input ligand: arginine 13.2 mM) 24.1 nM; (input ligand: none) 32.3 nM; under setting [1], 43.9 nM; under setting [2], 35.6 nM; under setting [3], 31.8 nM.
As to “ACCUGUACGAAAAGUGCAGGACACGGAAUACGAGGACCGGUACGGCCGCCACUCGGAAAACCUGAGGAUCACCCUGGUAACCGUG [TrypAS 11 #AlternativeMS2 #Zipper #StaticStem]”, the “apparent KD of MS2 coat protein” value (input ligand: arginine 13.2 mM) came to 21.6 nM; the “apparent KD of MS2 coat protein” value (input ligand: none) was determined as 16.3 nM; the “apparent KD of MS2 coat protein” value under setting [1] is 22.3 nM; the “apparent KD of MS2 coat protein” value under setting [2] turned out to be 25 nM; the “apparent KD of MS2 coat protein” value under setting [3] came to 22.1 nM.
In the same order, the values of “ACCUGUACGAAAAGUGCAGGACAUGGAAAUCGAGGACCGGUACGGCCGCCACUCGUUGAAAACAAGUGGAUCACCCUUGUCCAUG [TrypAS 3 #AlternativeMS2 #Zipper #StaticStem]” are 35.3 nM, 417 nM, 764 nM, 872 nM and 1070 nM.
With “ACGACGCAUAGUGAUACCAGUAGAACAUGAGGAUCACCCAUGUCAGAUAUGUUCUAAUACUGCCCUUGGCAGCACUAUGCGUCAG [SSTheo B #4]”, the “apparent KD of MS2 coat protein” value (input ligand: arginine 13.2 mM) is 144 nM, the “apparent KD of MS2 coat protein” value under setting [1] worked out at 344 nM and the “apparent KD of MS2 coat protein” value under setting [3] is 299 nM.
In the same order, the values of “ACGAUAGGACAUGAGGAUCACCCAUGUGAUACCAGCCUGGAAACAGGCCCUUGGCAGCACAAAUACUCCAGAAACCUAUCGAAAA [MAT - Exclusion Theophlline A - Mod of Eli - D5]” are 103 nM, 263 nM and 337 nM.
“ACGAUAGGACCUGAGGAUCACCCUGGUGAUACCAGCCUGGAAACAGGCCCUUGGCAGCACAAAUACUCCAAUAACCUAUCGAAUA [TheoAX 13 #MicroSwitchBubble #AlternativeMS2]”: the “apparent KD of MS2 coat protein” value stood at 245 nM (input ligand: arginine 13.2 mM); 611 nM (input ligand: none); 698 nM under setting [1]; 1100 nM under setting [2]; 1070 nM under setting [3].
In the case of “ACGUAAAGCAGAAGGAGCGUCUUCAAUUUACAUGAGGAUCACCCAUGUUUUGUGAUCAUAUGACAGGUAGGUCGCUGAAGUACGA [JR_SSArginiB_Sub002]”, the “apparent KD of MS2 coat protein” value came to 85.9 nM (input ligand: arginine 13.2 mM), 152 nM under setting [1], 141 nM under setting [2] and 123 nM under setting [3].
As to “ACGUAAUGCAGAAGGAGCGUCAACCUCUUACAUGAGGAUCACCCAUGUUACAUGGUUGUAUGACAGGUAGGUCGCUGAAGUACGA [JR_ExcArginiB_Sub001]”, the “apparent KD of MS2 coat protein” value runs as follows: (input ligand: arginine 13.2 mM) 31.9 nM; (input ligand: none) 34.7 nM; under setting [1], 50.5 nM; under setting [2], 50.4 nM; under setting [3], 36.6 nM.
In the case of “ACGUCUCGAAAACUCGUAGUAACUAUAGAUACCAGUAGCGAGAGUUACCCUUGGCAGCUACAUGAGGAUCACCCAUGUACGAGGA [XTheo A #28]”, the “apparent KD of MS2 coat protein” value runs as follows: (input ligand: arginine 13.2 mM) 16.4 nM; under setting [1], 20.9 nM; under setting [3], 15.1 nM.
